Results: the DeepSol protein solubility set

Test: soluble on expression in E. coli; label from the status in PepcDB or PDB records

Sequence | soluble on expression in E. coli
MRLEVFCEDRLGLTRELLDLLVLRGIDLRGIEIDPIGRIYLNFAELEFESFSSLMAEIRRIAGVTDVRTVPWMPSEREHLALSALLEALPEPVLSVDMKSKVDMANPASCQLFGQKLDRLRNHTAAQLINGFNFLRWLESEPQDSHNEHVVINGQNFLMEITPVYLQDENDQHVLTGAVVMLRSTIRMGR | soluble
MLIINKLNHAQKQLEKLNFIPQQADKVDFLASSSEFKARILQLINTAKSRIYLTALYFEQDEAGQQILAALYQAKLANPALDIQILVDWHRAQRGRIGEKTTSSNADWYANMKQQYNLPPEQEIAVWGVPINGREIFGVLHLKGFIFDDTILYSGASINNVYLQQFDRYRYDRYHTLENKVLADSLVTFLQQHILTDHAVNRLDNMQRPVTANIRPAIKAFRKQLTKQQYQFAEQPESNGLMLSPIAGLGRKNQLNKTIEALFYKTQNKLTICTPYFNFPRSLITRIKWLLENGKQVEIIAGDKKANDFYTPPDKKFTMAAALPYLYEKNLRAFAKRFDSYIQNKLLTIRLWKDGENTYHLKGLWVDNRYILLTGNNLNPRAWGLDAENGILLDDPKAELAEKAALELTQIRTFTQELSHYSDLETIKDYPLEVQKLLKKFGRVKLDKIIKMLLLEHHHHHH | not soluble
MNIFNNVKKAEIHVHLEATITPSICKKFADRNNHEIPDDFFGSKYAYEWDDFYDFLKKYDIVTSVIHTPEDYYELTYEYLKECAANNVIYMEAMISSTHAKNKGMTYHSFIEGVYEASKKAEEDFGIVARYIMNGIRHLGPESVQNTAEEVLKNPHPCLVGFGLAGDELHFPPNLFVKTFDMLKEANFPITVHAGEWDGPENIRNAINLLHPTRLGHGVRSIEDPELVKEIIDKDIILETCPTSNIATKIYEDYESHPVKTLFNQGVKVTVNSDDPPFFMQLFQ | soluble
MLPRLGGFLAGFSSTISSFLPKTTASTLFTHQSSQFSTSFPAWRNNFLQFIHYRNGPPKRRARSKDKSAISGYSHYKGIVLKTVIRHPKKPNSGNRKCAIVRLSTGAEVCAYIPNVGHNLQEHSQVLVKGGRRRDLISVKANIVRGKYDCAPAGGRK | not soluble
MSLNQGEQLPGNYRVEIYLNGEKVDVGEFPFHRPESPEEKELVPCLTVDDLIHYGIKIDKSSSDTDNKKNQCFKWNSIEGLKVNYDFDSQRVQITVPQLYLQDKKSSLAPVSLWNEGVAAFRMVYQTNIDISKQNDNQSTTRNSRYGRFTPGFNLGAWRFRSSVTWSKELGQSERWQRGYMWFERGINAIKSRLTLGESYTSSEVFDSIPFRGGMLATDDAMTPPEDSYYTPVVHGIAQSEAQVIIKQNGQIIFTRSVPPGPFALDNLPTLAVGGELDVTVRESNGEEQYFSVPFQTPAIALHEGYFKYSVMGGNIKKKEGHHHHHH | not soluble
MGSDKIHHHHHHMQSSSTLFPVALLSAERRGDLSEDVYRIKAGNGPDPSVELAITRLGLADQAQAQGVPVILLHGSFSNRRFWYSPKGVGLGAYLARAGFDVWIPEMRGHGLSPRNHDWKHNSVAAYARDDLPLINAFVREQSGQAPHWVGHSLGGTTLVAALGGGFLAAEQLASVALFGTQISRVYWPLKVPPLAWGAKLVLKRWGQISGPRFKRGPEDEPIGLALESMRWHGLFGRFGDKQNDWWAGLAEVDVPLLAVAGAGDFQDPVWACRKLFEQLGGERKQFLRLGREEGFEAFGHVDMLVSKAAQVQVWPLVERWLHNPLLPVHASTVVAEPVPAS | not soluble
MAKWVYKFEEGNASMRNLLGGKGCNLAEMTILGMPIPQGFTVTTEACTEYYNSGKQITQEIQDQIFEAITWLEELNGKKFGDTEDPLLVSVRSGARASMPGMMDTILNLGLNDVAVEGFAKKTGNPRFAYDSYRRFIQMYSDVVMEVPKSHFEKIIDAMKEEKGVHFDTDLTADDLKELAEKFKAVYKEAMNGEEFPQEPKDQLMGAVKAVFRSWDNPEAIVYRRMNDIPGDWGTAVNVQTMVFGNKGETSGTGVAFTRNPDTGEKGIYGRYLINAQGEDVVAGVRTPQPITQLENDMPDCYKQFMDLAMKLEKHFRDMQDMEFTIEEGKLYFLQTRNGKRTAPAALQIACDLVDEGMITEEEAVVRIEAKSLDQLLHPTFNPAALKAGEVIGSALPASPGAAAGKVYFTADEAKAAHEKGERVILVRLETSPEDIEGMHAAEGILTVRGGMTSHAAVVARGMGTCCVSGCGEIKINEEAKTFELGGHTFAEGDYISLDGSTGKIYKGDIETQEASVSGSFERIMVWADKFRTLKVRTNADTPEDTLNAVKLGAEGIGLCRTEHMFFEADRIMKIRKMILSDSVEAREEALNELIPFQKGDFKAMYKALEGRPMTVRYLDPPLHEFVPHTEEEQAELAKNMGLTLAEVKAKVDELHEFNPMMGHRGCRLAVTYPEIAKMQTRAVMEAAIEVKEETGIDIVPEIMIPLVGEKKELKFVKDVVVEVAEQVKKEKGSDMQYHIGTMIEIPRAALTADAIAEEAEFFSFGTNDLTQMTFGFSRDDAGKFLDSYYKAKIYESDPFARLDQTGVGQLVEMAVKKGRQTRPGLKCGICGEHGGDPSSVEFCHKVGLNYVSCSPFRVPIARLAAAQAALNNK | soluble
MSLDKIRYGIMSTAQIVPRFVAGLRESAQAEVRGIASRRLENAQKMAKELAIPVAYGSYEELCKDETIDIIYIPTYNQGHYSAAKLALSQGKPVLLEKPFTLNAAEAEELFAIAQEQGVFLMEAQKSVFLPITQKVKATIQEGGLGEILWVQSVTAYPNVDHIPWFYSREAGGGALHGSGSYPLQYLQYVLGKEIQEVTGTATYQQGATDSQCNLALKFAEGTLGNIFINVGLKIPSEMTICGTKGQIVIPNFWKTDCAYYTDAQGNTVKWSEQFTSEFTYEINHVNQCLQDKKLTSPVMTKELTIATVKIVESFYQEWFDNEGHHHHHH | soluble
MIRRRHSTTRIDRRPDGLTIYYKRANDDMEEEMLRVSVKPEGKNINDSLRSSKSSSSPPSRNSSLNLKTLKKDRKSKEGKPKSSSKHGKRMTSRAIHVSKKWSQFNRREDKTDYLDDETMQILEDLKILNCKIRKRFQIGTTCPHSLAKTDILSSSQSSKSQKSSTTTSSPVLTAVAYDYRGIPLTAPTVFPGARSEKTRETTRKAARAFARMEKEREDANNSSSRSRKTYQSRSPTGSEDSSPVIKLTRVSSGTRFPGASSPGTRERSRLMLKQCAMKKQLDEIARSLKSSKKSRKSMKSKKEKKSKPASLKTIYSKM | not soluble
GAGTQTAQTQALDSDGIPTGGEWITMFDGKTLNGWRGYCRQDVPLGWVVEDGSITYKGSDNKADTGFGDLIYDKKFKNFVFEIEWKIDKAGNSGIFYTAQEIEGTPIYYSSPEYQLLDNENMPDAWEGCDGNRQAGAVYDMIMPDPQPVKPYGNWNKTRIVVYNQRVIHYMNDVKILEFQFGTPVWRALVDHSKFSKFSTSPEKCPEAYDLMLQCGKQPGYIGMQDHGYGVCFRNIRIKEL | soluble
MKSTFSVLFFVKKDKQKINGSYPIFVRITIDGVASRFNSKLDVQPKLWDGKAGKAAGRSAEATRINRLLDDINASLNTIYHELQRRDNYVTAEKVKNEFLGHSENHDTILNLFQKHNDDVKQLVGISKTIATYRKYEVTRRHLAEFIQSKYNLSDISIKEITPMFITDFELYLRTTCKCGYNTTAKFMQFFKRIILIARNNGILIGDPFANYKIRLEKVDRGYLTEDEIKIILKKKMVSERLEQVRDVFIFSCFSGLAYVDVANLKEDNIRKSFDGNLWIITKRQKTNTDVNVPLLDIPKMILEKYKGKLPNGKVLPIISNQK | not soluble
GQLDDVLMPYVGDQTEAQIYKKLRHFWIMLDRTLPDAFMHVNIGPTDNIICRTILRVDAELKQIAPNLTFMYDESITPDDLLRQATKNICDCSKPHIANYPIHANAYDGERFGIVSCYNSLPLAGGSNTLVRMNLKEVAKRAASRDDFFSNVLPTYHQLMTELMDARSSHLHEQSQFFQGFLTQEGLIEESRFAPMYGIYGMAEAVNLLLEKEGQTSRYGQDERANALGHEISASLATLVDSTPVRYGLEGKALLHAQGGISLDLDVTPGVRLPYGNEPDPVTYVQATAAHHQYYRAGISDILTIDETVKSNPEAMFNLCKGALNAGYREFTANVASNDLVRVTGYMVKLSDIAKYDAEGSRTNTTFLGAEAAKNTGILERSPRVVSQEMSPVYK | not soluble
VKRFWENVGKPNDTTDGRGTTSLAMTPISQTPGLLAEAMVDLGAIEHNVRVLREHAGHAQLMAVVKADGYGHGATRVAQTALGAGAAELGVATVDEALALRADGITAPVLAWLHPPGIDFGPALLADVQVAVSSLRQLDELLHAVRRTGRTATVTVKVDTGLNRNGVGPAQFPAMLTALRQAMAEDAVRLRGLMSHMVYADKPDDSINDVQAQRFTAFLAQAREQGVRFEVAHLSNSSATMARPDLTFDLVRPGIAVYGLSPVPALGDMGLVPAMTVKCAVALVKSIRAGEGVSYGHTWIAPRDTNLALLPIGYADGVFRSLGGRLEVLINGRRCPGVGRICMDQFMVDLGPGPLDVAEGDEAILFGPGIRGEPTAQDWADLVGTIHYEVVTSPRGRITRTYREAENR | soluble
MGSDKIHHHHHHMDREIFVSYSVSANSIAGWVAYGGSESFHDMSRGILAARIGIPRLLRMFRKFCIKSSWYVPGIVMETFPDEVRAIYADGHELGTHGYLHEYAPSMSYDQEERVIAKTAELVKDITGHNPYGHLPSQWEESVNTMRILMNHGYKYARGLEDDDFHPFYASTGRSWPRVDYSKLPETWMKPMNLGEKIDFVEIPINWFLNDGTYFNFNKHVPGKRPMSLSEVLENWKAAFDYVYREYEYAIFPVNIHPDTSGNPEVQIFHEKFISYILEHNGASFVSDSFIAEDFRKRYPFPHEFREKVDL | not soluble
TKDFSWTTAFNLSHNKNKILKLADLPWFVDGRYVRKEGYPFNTIYLREYAGVDPETGSALYYDNQQDENGNYTKNKVTDPGQASPIPLKDITPTISGGFMNTFNYKFIDLSFNLSYSFGGYSYDNASYILQDDGYSVISNKSTEQRRRWQKPGDITDVPRFVYGNKKGGNYNSSRAIHSTDHIRLKSLILGLNAPKAWLQKLGIGNARIYFSGTNLLTWAAYDQYDPEMSGVVGFYTPPLKTYAFGLELKF | not soluble
MKKVFDVWDVETAKRFLEVIRNETIYYPVLIALHTGMRAGEIVSLKWYDVNFEARIISVVKSVRNNRGLKTSDVKTKTSKRSVYINDVLFSELKNLYETIKPKPDDFVCPRLPTGNLTVGYLSKRFKLLVKRYNFPVIRFHDLRHTFATLMLSLGVNTKIVAEILGHSDIKLTADTYSHVLPTMQESAMKEFSKLWKLEHHHHHH | not soluble
MFRISQLLKTLHDDMAELKPVKASRKMKGPVVIWNLIRRCNLQCKHCYSTSLDIDFKDELSTEQVKTTIDDLKVAHVPVLILSGGEPLLRPDIYEITEYAKQKGFYLALSTNGTLINEDNIEAIKAAEYQYVGISIDGLEEFHDEFRRQKGSFKTSMHAIKLCKDAGIKVGMRLCLTRENFKDLPAMLNLMEENSVDKFYLSHLNYSGRGKRTAENDAMFKMTKDAMELLYERAWTHINQGIETDFVTGNNDADGPFLLQWASKQFAEEYPEAIANLKQRLINWGGNSSGINVANIDNTGTIHPDTYWWNHPIGNVTTEKFSDVWRDTQDPLMLGFRQTPRPVKGRCASCEHLAICGGNTRTRAFAQSGDAWAEDPGCYLDDDEIGFIPSPSKFADELTNTENPIQFVEV | not soluble
MSLKIDFLTLFPEMFEGVLGSSILQKAQEKDAVQFQVVNFREYSDNKHNTVDDYPYGGGAGMVLKPQPVFDAVEDLTSKAAAAPRIILVCPQGERFTQKKAEQLAKEEHLLFICGHYEGYDERIREHLVTDEISIGDFVLTGGELPAMMIADSVVRLLPGVLGKEASHIEDSFSTGLLEHPHYTRPADYKGLKVPETLLSGNHAKIEEWRNKESIRRTYLRRPDLLKDYPLTEQQRKWISEWEKEEGGSHHHHHH | soluble
WFDTLNCHRLSDYQVGRAADIRLPEGCAFSDGIGSAFALEEAPPFSGRPDMPTAADFLALAAKGGYPAVHAAHAGLLYVRNKIALTAKEQAERRARP | not soluble
